Data from patent US20170165339A1.

What follows are binders tested against HLA-A*24 (human) (assay: UV peptide-exchange ELISA, yield grade).

LYITEPKTI [… (SEQ ID NO: 287)] and EYSLFPGQVVI [… (SEQ ID NO: 197)] fall in the same range of peptide exchange yield: 50 to 75% for the first, 50 to 75% for the second.

Compared with IYATEAHVF [… (SEQ ID NO: 201)], LYNKGFIYL [… (SEQ ID NO: 159)] is higher in peptide exchange yield: 50 to 75% for the first, greater than 75% for the second.

YYEVHKELF [… (SEQ ID NO: 175)] and VYTLDIPVL [… (SEQ ID NO: 160)] cannot be ordered by peptide exchange yield: greater than 75% for the first, greater than 75% for the second.

First: YYKSTSSAF [… (SEQ ID NO: 218)]
Second: TYELRYFQI [… (SEQ ID NO: 204)]
The peptide exchange yield of the first is lower: 50 to 75% for the first, greater than 75% for the second.

Compared with IYSWILDHF [… (SEQ ID NO: 173)], VYEDQVGKF [… (SEQ ID NO: 170)] is lower in peptide exchange yield: greater than 75% for the first, 20 to 49% for the second.

VFTRVSSFL [… (SEQ ID NO: 162)] and VYVGGGQIIHL [… (SEQ ID NO: 174)] fall in the same range of peptide exchange yield: 50 to 75% for the first, 50 to 75% for the second.

YYGPSLFLL [… (SEQ ID NO: 200)] and AYTLIAPNI [… (SEQ ID NO: 169)] fall in the same range of peptide exchange yield: 50 to 75% for the first, 50 to 75% for the second.

TFSVSSHLF [… (SEQ ID NO: 222)] and RYAEEVGIF [… (SEQ ID NO: 199)] fall in the same range of peptide exchange yield: 50 to 75% for the first, 50 to 75% for the second.

Compared with NYYEVHKELF [… (SEQ ID NO: 270)], KYQDILETI [… (SEQ ID NO: 168)] is higher in peptide exchange yield: 50 to 75% for the first, greater than 75% for the second.

HYPPVQVLF [… (SEQ ID NO: 285)] and QYLGQIQHI [… (SEQ ID NO: 268)] fall in the same range of peptide exchange yield: 50 to 75% for the first, 50 to 75% for the second.

TYKDEGNDYF [… (SEQ ID NO: 209)] and YFIDSTNLKTHF [… (SEQ ID NO: 269)] fall in the same range of peptide exchange yield: 50 to 75% for the first, 50 to 75% for the second.

First: LFIPSSKLLFL [… (SEQ ID NO: 171)]
Second: DYLKGLASF [… (SEQ ID NO: 163)]
The peptide exchange yield of the first is lower: 50 to 75% for the first, greater than 75% for the second.

Compared with EYNQWFTKL [… (SEQ ID NO: 176)], DYTTWTALL [… (SEQ ID NO: 165)] is higher in peptide exchange yield: 50 to 75% for the first, greater than 75% for the second.

VYWDSAGAAHF [… (SEQ ID NO: 202)] and YYVESGKLF [… (SEQ ID NO: 166)] cannot be ordered by peptide exchange yield: greater than 75% for the first, greater than 75% for the second.

First: KFSSFSLFF [… (SEQ ID NO: 164)]
Second: IYLVSIPEL [… (SEQ ID NO: 161)]
The peptide exchange yield of the first is lower: 50 to 75% for the first, greater than 75% for the second.

NYINRILKL [… (SEQ ID NO: 167)] and TYSVSFPMF [… (SEQ ID NO: 195)] cannot be ordered by peptide exchange yield: greater than 75% for the first, greater than 75% for the second.

First: HYSQELSLLYL [… (SEQ ID NO: 158)]
Second: AYVVFVSTL [… (SEQ ID NO: 207)]
The peptide exchange yield of the first is higher: greater than 75% for the first, 20 to 49% for the second.

First: PYRLIFEKF [… (SEQ ID NO: 281)]
Second: VYQGHTALL [… (SEQ ID NO: 277)]
The peptide exchange yield of the first is lower: 20 to 49% for the first, greater than 75% for the second.

LYIDRPLPYL [… (SEQ ID NO: 196)] showed a peptide exchange yield of 50 to 75%.
